Test results from patent US6375944B1, “Methods and compositions for enhancing the immunostimulatory effect of interleukin-12” (The Wistar Institute of Anatomy and Biology, priority 1998, dated 2002).
Read-outs that look alike come from different tables or passages of the source.

Tests used:
SCK cells [1] = assay: SCK.GM cell vaccination followed by SCK tumor cell challenge; format: in vivo, A/J mice; details: rmIL-12 250 ng/day ip days 0-4 and 7-11; challenge two weeks after vaccination
Excerpt: A. Female A/J mice were vaccinated with 10^6 irradiated SCK.GM cells suspended in PBS at 10^7 trypan blue-excluding cells/ml. Cells were irradiated with 6000 rads from a ^137Cs source, and mice were vaccinated with 10^6 cells s.c. (day 0). […] Vaccinated and naive A/J mice were challenged fourteen days after vaccination with 2.5×10^4 trypan blue-excluding SCK cells in the opposite flank to assay for the presence of tumor immunity. Tumorigenesis was scored daily.

SCK cells [2] = assay: Irradiated wild-type SCK cell vaccination followed by SCK tumor cell challenge; format: in vivo, A/J mice; details: SCK-vaccinated mice; at 28 days; rmIL-12 alone, or L-NAME/D-NAME given with rmIL-12
Excerpt: Female A/J mice (8 mice per group) were vaccinated with 10^6 irradiated SCK cells and received either PBS, rmIL-12, rmIL-12+L-NAME or rmIL-12 and D-NAME on days 0-4 and 7-11. Mice were challenged fourteen days after vaccination with 2.5×10^4 SCK cells in the opposite flank. Tumorigenesis was scored daily, as described above.

[3] = Splenomegaly after a course of rmIL-12; format: in vivo; details: iNOS−/− mice, like wild-type mice
SCK cells [4] = details: A/J mice with established SCK immunity; given just prior to tumor cell rechallenge; cited from earlier work
splenocytes = assay: Mitogen and alloantigen stimulation of splenocytes (3H-thymidine incorporation), whole or adherent/nonadherent cocultures; format: cell-based, mice; details: for proliferative responses to Con A, IL-12 and allogeneic stimulation: data not shown
Description: The mitogen and alloantigen stimulation of splenocytes assay was performed as follows: In vitro mitogenic stimulation of splenocytes with […] Con A or 100 U/ml rmIL-12 was performed as described [Kurzawa, cited above]. Proliferative responses to allogeneic antigens (mixed lymphocyte reaction, MLR) was measured when splenocytes from the mice were stimulated with 10^5 mitomycin treated A/J splenocytes. Splenocyte fractionation was performed by allowing 10^5 splenocytes to adhere for 90 minutes in 96 well plates, after which the nonadherent cells were removed and cocultured with adherent cells from different wells for assay. When added, antibodies (XMG6 for IFNγ, XT22 for TNFα, AE5 for IL-10 and C17.8 for IL-12 ) were used at […] final concentration. After 72 hours exposure to mitogen, cultures were pulsed with 1 μCi^3H-thymidine for 16 hours, cells were harvested and ^3H incorporation was measured by scintillation counting. Supernatants from cultures assayed for IFNγ by radioimmunoassay (RIA) (using antibodies AN18 and XMG6 [Wysocka, M. et al. 1995 Eur. J. Immunol. 25:672] were harvested 24 or 72 hours after stimulation.
A. Splenocytes from rmIL-12- and PBS-treated C57BL/6 mice were fractioned by adherence to 96 well plastic plates for 90 minutes. The cells were reconstituted in various combinations of adherent and nonadherent cells by overlaying nonadherent cells on the adherent cells. These cocultures were then stimulated with either 2.5 μg/ml Con A, 100 U/ml IL-12, or 10^5 mitomycin C treated A/J (H-2A) splenocytes, as described in the mitogen/alloantigen assay of Example 1.
B. Cocultures were established from splenic adherent and nonadherent cells of PBS-treated mice or from the adherent cells of rmIL-12-treated mice and nonadherent cells of PBS-treated mice. Antibodies XMG6 (to IFNγ), XT22 (to TNFα), AE5 (to IL-10) and C17.8 (to IL-12 ) were added to a final concentration of […] in cocultures containing adherent cells from spleen of rmIL-12-treated mice, also according to the assay described in Example 1.
Cocultures were established from splenic adherent and nonadherent cells of PBS-treated mice or from the adherent cells of rmIL-12-treated mice and nonadherent cells of PBS-treated mice. Antibodies XMG6 (to IFNγ), XT22 (to TNFα), AE5 (to IL-10) and C17.8 (to IL-12) were added to a final concentration of […] in cocultures containing adherent cells from spleen of rmIL-12-treated mice. An inhibitor of inducible nitric oxide synthase (iNOS), L-NMMA (Sigma), was added to cocultures of adherent cells from rmIL-12 treated mice and nonadherent cells from control mice at a final concentration of […]. Alternatively, D-NMMA (Sigma), a noninhibitory isoform of L-NMMA, was added to other cocultures as a control.

SCK cells [5] = details: cited from earlier work
SCK cells [6] = details: cited from earlier work; remark: listed apart in the source
SCK tumors = assay: Antitumor activity of rmIL-12 against SCK tumors (tumorigenesis scored daily); format: in vivo, A/J mice; details: L-NAME given with rmIL-12
Description: Female A/J mice were injected with 2.5×10^4 SCK cells and either PBS, rmIL-12, rmIL-12+L-NAME or rmIL-12 and D-NAME on days 0-4 and 7-11. Tumorigenesis was scored daily, as described above.

B1: rmIL-12: recombinant murine Interleukin-12, heterodimeric cytokine, from Genetics Institute (protein, UniProt P43431 23-215; P43432 23-335, looked up)
Interleukin-12 subunit alpha: RVIPVSGPARCLSQSRNLLKTTDDMVKTAREKLKHYSCTAEDIDHEDITRDQTSTLKTCLPLELHKNESCLATRETSSTTRGSCLPPQKTSLMMTLCLGSIYEDLKMYQTEFQAINAALQNHNHQQIILDKGMLVAIDELMQSLNHNGETLRQKPPVGEADPYRVKMKLCILLHAFSTRVVTINRVMGYLSSA
Interleukin-12 subunit beta: MWELEKDVYVVEVDWTPDAPGETVNLTCDTPEEDDITWTSDQRHGVIGSGKTLTITVKEFLDAGQYTCHKGGETLSHSHLLLHKKENGIWSTEILKNFKNKTFLKCEAPNYSGRFTCSWLVQRNMDLKFNIKSSSSSPDSRAVTCGMASLSAEKVTLDQRDYEKYSVSCQEDVTCPTAEETLPIELALEARQQNKYENYSTSFFIRDIIKPDPPKNLQMKPLKNSQVEVSWEYPDSWSTPHSYFSLKFFVRIQRKKEKMKETEEGCNQKGAFLVEKTSTEVQCKGGNVCVQAQDRYYNSSCSKWACVPCRVRS
SCK cells [1]
  Effect on SCK.GM vaccine protection from tumor cell challenge: severely impaired this protection
SCK cells [2]
  level of protection: 75%
[3]
  splenomegaly: induced splenomegaly
SCK cells [4]
  Effect on tumor protection: impairs tumor protection
splenocytes; cultures of adherent and nonadherent splenocytes both from rmIL-12 treated mice, vs. PBS-treated
  mitogenic responses: suppressed mitogenic responses
splenocytes; nonadherent cells from control mice mixed with adherent cells from rmIL-12 treated mice
  proliferative responses (Con A, IL-12 or alloantigen): severely impaired
splenocytes; nonadherent cells from rmIL-12 treated mice cocultured with adherent cells from PBS-treated mice
  mitogenic responses: normal mitogenic responses
splenocytes; splenocytes from rmIL-12-treated HKB-vaccinated C57BL/6 mice
  in vitro mitogenic and alloproliferative responses: suppressed
splenocytes; splenocytes from rmIL-12-treated TNFR−/− mice
  proliferative responses to Con A, IL-12 and allogeneic stimulation: suppressed
splenocytes; splenocytes from rmIL-12-treated iNOS−/− mice
  proliferative responses after stimulation with mitogens or alloantigens: proliferative responses like those of splenocytes from control mice
splenocytes; splenocytes from rmIL-12 treated IFNγ−/− mice
  proliferative responses to Con A, IL-12 and allogeneic stimulation: normal proliferative responses
SCK cells [5]; four weeks after vaccination
  Effect on SCK.GM vaccine protection: had no deleterious effect
SCK cells [5]; two weeks after vaccination
  Effect on SCK.GM vaccine protection: abrogated protection
SCK cells [6]; challenged 14 days after vaccination
  Effect on protection by irradiated SCK cell vaccination: did not improve protection
SCK cells [6]; challenged at 28 days
  Effect on protection by irradiated SCK cell vaccination: did improve protection
SCK tumors; 2.5×10^4 SCK cells, treatment days 0-4 and 7-11, 9 days without rmIL-12
  median days to tumor appearance: 14 days
SCK tumors; treatment started on day of SCK cell injection
  delay of tumor appearance vs. untreated mice: about 5 days
